Data: US20120114652A1 (AbbVie / Abbott, published 2012)
Substitutions are numbered along the chain they refer to.

T1: rat PAI-1 (rat, UniProt P20961 24-402)
T1 construct: bought (US Biological)
T1 sequence: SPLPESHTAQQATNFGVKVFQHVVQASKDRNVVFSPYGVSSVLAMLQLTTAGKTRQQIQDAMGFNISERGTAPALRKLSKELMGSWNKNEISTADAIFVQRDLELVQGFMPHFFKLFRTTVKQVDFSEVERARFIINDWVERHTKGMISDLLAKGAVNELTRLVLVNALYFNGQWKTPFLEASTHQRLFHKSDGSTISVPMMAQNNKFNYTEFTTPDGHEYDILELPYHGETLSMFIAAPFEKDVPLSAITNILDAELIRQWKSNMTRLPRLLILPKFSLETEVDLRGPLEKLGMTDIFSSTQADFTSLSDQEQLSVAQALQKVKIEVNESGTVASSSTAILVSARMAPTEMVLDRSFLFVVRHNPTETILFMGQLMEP

T2: rabbit PAI-1 (rabbit)
T2 chain: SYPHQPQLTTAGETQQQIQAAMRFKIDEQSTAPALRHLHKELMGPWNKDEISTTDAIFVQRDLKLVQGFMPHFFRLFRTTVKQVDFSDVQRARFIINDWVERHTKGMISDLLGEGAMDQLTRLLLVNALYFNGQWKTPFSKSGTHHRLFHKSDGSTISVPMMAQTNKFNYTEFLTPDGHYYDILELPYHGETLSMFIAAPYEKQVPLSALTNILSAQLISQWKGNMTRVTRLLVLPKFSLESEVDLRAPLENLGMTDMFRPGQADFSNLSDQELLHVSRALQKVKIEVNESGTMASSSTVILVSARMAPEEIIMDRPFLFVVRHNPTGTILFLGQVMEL

B1: mouse PAI-1 (other)
chain: ALPLRESHTAHQATDFGVKVFQQVVQASKDRNVVFSPYGVSSVLAMLQMTTAGKTRRQIQDAMGFKVNEKGTAHALRQLSKELMGPWNKNEISTADAIFVQRDLELVQGFMPHFFKLFQTMVKQVDFSEVERARFIINDWVERHTKGMINDLLAKGAVDELTRLVLVNALYFSGQWKTPFLEASTHQRLFHKSDGSTVSVPMMAQSNKFNYTEFTTPDGLEYDVVELPYQGDTLSMFIAAPFEKDVHLSALTNILDAELIRQWKGNMTRLPRLLILPKFSLETEVDLRGPLEKLGMPDMFSATLADFTSLSDQEQLSVAQALQKVRIEVNESGTVASSSTAFVISARMAPTEMVIDRSFLFVVRHNPTETILFMGQVMES
notes: bought (US Biological); also called murine PAI-1
B2: Antibody 20, IgG1, not germlined (antibody, V domains shown)
VH: QVQLQQSGAEVKKPGSSVKVSCKASGGTFSSYAISWVRQAPGQGLEWMGGIIPTFGTANYAQKFQGRVTITADESTSTAYMELSSLRSEDTAVYYCAREKRQWLEGHFDYWGRGTLVTVSS
VL: DIQMTQSPSTLSASVGDRVTITCRASEGIYHELAWYQQKPGKAPKLLIYRASSLASGVPSRFSGSRSGTEFTLTISSLQPDDFATYYCQQYSDYPLTFGGGTKVEIK
notes: whole IgG1; also called Ab 20
B3: Antibody 08, scFv (scFv, V domains shown)
VH: B2 VH with Q5V, K100R
VL: B2 VL with E32N, R50K, D93N
B4: Antibody 27, IgG1, not germlined (antibody, V domains shown)
VH: B2 VH with T28A, S85G, L116P
VL: B2 VL with T10F, V15I, E32N, V58A, R66G, E70D, D93N, V104L
notes: whole IgG1; also called Ab 27

How the values were obtained:
[1] = molecular target: PICK167_A01 IgG1; assay: competition ELISA (DELFIA): PICK167_A01 IgG1 coated on the plate, binding of biotinylated human PAI-1 detected with streptavidin-Eu3+ in the presence of a titration of the unlabelled test antigen (the varied molecule)
[2] = molecular target: T3, PICK167_A01-fgl IgG1 (CAT-1001); assay: competition ELISA (DELFIA): PICK167_A01-fgl IgG1 (CAT-1001) coated on the plate, binding of biotinylated human PAI-1 detected with streptavidin-Eu3+ in the presence of a titration of the unlabelled test antigen (the varied molecule)
T3 construct: fully germlined variant, made as an IgG1 only; also called PICK67A01-fgl

[3] = molecular target: B1; assay: competition ELISA (DELFIA), IgG coated, competitor titrated against biotinylated active human PAI-1
[4] = molecular target: T1, rat PAI-1; assay: as above
[5] = molecular target: T4, latent human PAI-1 (human, UniProt P05121 24-402); assay: as above
T4 construct: also called latent PAI-1

[6] = molecular target: T2, rabbit PAI-1; assay: as above
[7] = molecular target: B1; assay: cell-based or functional assay
[8] = molecular target: T1, rat PAI-1; assay: cell-based or functional assay
[9] = molecular target: T5, human PAI-1, active, wild-type, non-glycosylated (E. coli-derived) (human, UniProt P05121 24-402); assay: cell-based or functional assay
[10] = molecular target: T6, cynomolgus PAI-1 (cynomolgus, UniProt P05121 24-402 (human entry), limits assumed); assay: cell-based or functional assay
[11] = molecular target: B1; assay: cell-based or functional assay; remark: listed apart in the source
[12] = molecular target: T1, rat PAI-1; assay: cell-based or functional assay; remark: listed apart in the source
[13] = molecular target: T5, human PAI-1, active, wild-type, …; assay: cell-based or functional assay; remark: listed apart in the source
[14] = molecular target: glycosylated active human PAI-1 produced by CHO cells (human, UniProt P05121 24-402, N-glycosylated (CHO-produced)); assay: cell-based or functional assay
[15] = molecular target: B1; assay: cell-based or functional assay; remark: listed apart in the source
[16] = molecular target: T5, human PAI-1, active, wild-type, …; assay: cell-based or functional assay; remark: listed apart in the source
[17] = molecular target: T6, cynomolgus PAI-1; assay: cell-based or functional assay; remark: listed apart in the source

IC50 (read off the curve) [1] [nM] | IC50 (read off the curve) [2] [nM] | IC50 ratio mouse/wt [3] | IC50 ratio rat/wt [4] | IC50 ratio latent/wt [5] | IC50 ratio rabbit/wt [6] | IC50 chromogenic [7] [nM] | IC50 ratio mouse/human [7] | IC50 chromogenic [8] [nM] | IC50 ratio rat/human [8] | IC50 chromogenic [9] [nM] | IC50 chromogenic [10] [nM] | IC50 ratio cyno/human [10] | IC50 HT-1080 Exo PAI-1 [11] [nM] | IC50 HT-1080 Exo PAI-1 [12] [nM] | IC50 HT-1080 Exo PAI-1 [13] [nM] | IC50 chromogenic, hu glyco [14] [nM] | IC50 chromogenic (FIG. 2d) [15] [nM] | IC50 chromogenic (FIG. 2a) [16] [nM] | IC50 chromogenic (FIG. 2b) [17] [nM] | Binder
~4 | ~2 | – | – | – | – | – | – | – | – | – | – | – | – | – | – | – | – | – | – | B1
– | – | 7.6 | 2.3 | 7.5 | 9.1 | 1.4 | 0.9 | 2.9 | 1.8 | 1.6 | 0.8 | 0.5 | 5.9 | 16.2 | 7.3 | 1.3 | – | – | – | B2
– | – | – | – | – | – | – | – | 3 | – | 3.2 | 1 | – | 26.2 | 50.1 | 23.7 | – | 2.6 | 3.6 | 0.8 | B3
– | – | 6.1 | 1.2 | 6.8 | 85 | 16.1 | 3.3 | 26.5 | 5.4 | 4.9 | – | – | 7.8 | 16.1 | 10.9 | 2.6 | – | – | – | B4
